Each block holds one binder with its values, some of them ahead of it. Numbered stars: 1 amine (or outer) side, 2 acyl side, 3 side chain; on linkers, the order of the positions; unused ones are H or OH. Square brackets hold non-standard residues; d marks the D form. Ends that are not written are not given here. * marks the point of attachment. Ebe = (R)-2-amino-3-(methylsulfanyl)propanoic acid, CSC[C@H](N[*:1])C(=O)[*:2]; 6059 = 3-(Octane-1-sulfinyl)-propionic acid, CCCCCCCCS(=O)CCC(=O)*; 6057 = 3-Octylsulfanyl-propionic acid, CCCCCCCCSCCC(=O)*; 6058 = 7-Butylsulfanyl-heptanoic acid, CCCCSCCCCCCC(=O)*; Sni = (S)-nipecotic acid, O=C([C@H]1CCCN([*:1])C1)[*:2]; 6014 = (E)-dodec-2-enoic acid, CCCCCCCCC/C=C/C(=O)*; 6056 = (2S)-2-octylcyclopropanecarboxylic acid; Dodecenoyl(5Z) = CCCCCC/C=C\CCCC(=O)*; Hyp = O=C(O)[C@@H]1C[C@@H](O)CN1; NMeF = CN[C@@H](Cc1ccccc1)C(=O)O; tBuAla = CC(C)(C)C[C@H](N)C(=O)O; NMeL = CN[C@@H](CC(C)C)C(=O)O; NMeK = CN[C@@H](CCCCN)C(=O)O; Tle = CC(C)(C)[C@H](N)C(=O)O; Lauroyl = CCCCCCCCCCCC(=O)*; 3Amb = NCc1cccc(C(=O)O)c1; NMeA = CN[C@@H](C)C(=O)O; Octanoyl = CCCCCCCC(=O)*; 6054 = not defined here; Nva = CCC[C@H](N)C(=O)O; FrL = not defined here; Hexanoyl = CCCCCC(=O)*; Oct = not defined here; GABA = NCCCC(=O)O; Sar = CNCC(=O)O
Target: T1, natriuretic peptide receptor-B (human)
T1 chain: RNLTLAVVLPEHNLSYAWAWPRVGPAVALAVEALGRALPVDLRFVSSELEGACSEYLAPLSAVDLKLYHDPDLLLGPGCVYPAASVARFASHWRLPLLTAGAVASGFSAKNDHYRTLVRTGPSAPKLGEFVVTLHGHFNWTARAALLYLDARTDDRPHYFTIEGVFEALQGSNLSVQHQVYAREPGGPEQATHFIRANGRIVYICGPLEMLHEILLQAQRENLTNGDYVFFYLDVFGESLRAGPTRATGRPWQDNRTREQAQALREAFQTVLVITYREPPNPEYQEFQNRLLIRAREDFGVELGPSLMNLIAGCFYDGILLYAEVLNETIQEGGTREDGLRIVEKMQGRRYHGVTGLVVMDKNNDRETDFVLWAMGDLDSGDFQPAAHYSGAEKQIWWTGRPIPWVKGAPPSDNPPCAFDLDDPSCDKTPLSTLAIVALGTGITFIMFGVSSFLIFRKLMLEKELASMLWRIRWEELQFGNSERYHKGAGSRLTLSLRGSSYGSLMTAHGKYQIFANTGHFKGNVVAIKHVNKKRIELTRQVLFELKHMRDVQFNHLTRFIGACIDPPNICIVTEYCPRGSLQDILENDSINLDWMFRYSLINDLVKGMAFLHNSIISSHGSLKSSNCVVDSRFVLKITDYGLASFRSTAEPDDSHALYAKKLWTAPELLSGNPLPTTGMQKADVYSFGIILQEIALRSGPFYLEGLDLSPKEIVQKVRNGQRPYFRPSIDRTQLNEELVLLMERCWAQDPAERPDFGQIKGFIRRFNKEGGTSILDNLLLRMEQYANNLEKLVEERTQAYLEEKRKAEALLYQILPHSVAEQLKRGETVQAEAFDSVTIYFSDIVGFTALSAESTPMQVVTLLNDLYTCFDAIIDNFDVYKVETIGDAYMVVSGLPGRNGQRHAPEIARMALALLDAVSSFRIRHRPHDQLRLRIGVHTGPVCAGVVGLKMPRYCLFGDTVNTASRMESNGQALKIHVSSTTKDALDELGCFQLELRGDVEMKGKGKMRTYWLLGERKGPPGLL
Assay: cell-based or functional assay

EC50 group, cGMP in GTM-3 cells: ≤ 5 µM
B1: JAL-1229 (peptide)
peptide: Octanoyl-AFRL[NMeK][NMeL]DRI-NH2
modifications: not fully specified (some residues); printed as Occ-ala-Phe-arg-Leu-Nmk-Nml-Asp-Arg-Ile-NH2

EC50 group, cGMP in GTM-3 cells: ≤ 5 µM
B2: JAL-1240 (peptide)
peptide: 6056-FRL[Hyp][NMeL]DRI-NH2
modifications: not fully specified (some residues); printed as 6056-Phe-arg-Leu-Hyp-Nml-Asp-Arg-Ile-NH2

EC50 group, cGMP in GTM-3 cells: ≤ 5 µM
B3: JAL-1243 (peptide)
peptide: 6059-FRL[Hyp][NMeL]DRI-NH2
modifications: not fully specified (some residues); printed as 6059-Phe-arg-Leu-Hyp-Nml-Asp-Arg-Ile-NH2

EC50 group, cGMP in GTM-3 cells: ≤ 5 µM
B4: JAL-1231 (peptide)
peptide: Octanoyl-AFRL[Sar][NMeL]DRI-NH2
modifications: not fully specified (some residues); printed as Occ-ala-Phe-arg-Leu-Sar-Nml-Asp-Arg-Ile-NH2

EC50 group, cGMP in GTM-3 cells: ≤ 5 µM
B5: JAL-1237 (peptide)
peptide: 6014-FRL[Hyp][NMeL]DRI-NH2
modifications: not fully specified (some residues); printed as 6014-Phe-arg-Leu-Hyp-Nml-Asp-Arg-Ile-NH2

EC50 group, cGMP in GTM-3 cells: ≤ 5 µM
B6: JAL-1239 (peptide)
peptide: 6054-FRL[Hyp][NMeL]DRI-NH2
modifications: not fully specified (some residues); printed as 6054-Phe-arg-Leu-Hyp-Nml-Asp-Arg-Ile-NH2; reading uncertain

EC50 group, cGMP in GTM-3 cells: ≤ 5 µM
B7: JAL-1227 (peptide)
peptide: Octanoyl-AFRL[Hyp][Ebe]DRI-NH2
modifications: not fully specified (some residues); printed as Occ-ala-Phe-arg-Leu-Hyp-Ebe-Asp-Arg-Ile-NH2

EC50 group, cGMP in GTM-3 cells: ≤ 5 µM
B8: JAL-1242 (peptide)
peptide: 6058-FRL[Hyp][NMeL]DRI-NH2
modifications: not fully specified (some residues); printed as 6058-Phe-arg-Leu-Hyp-Nml-Asp-Arg-Ile-NH2

EC50 group, cGMP in GTM-3 cells: ≤ 15 µM
B9: JAL-1244 (peptide)
peptide: Lauroyl-[NMeF]RL[Hyp][NMeL]DRI-NH2
modifications: not fully specified (some residues); printed as 832-Nmf-arg-Leu-Hyp-Nml-Asp-Arg-Ile-NH2

EC50 group, cGMP in GTM-3 cells: ≤ 15 µM
B10: JAL-1230 (peptide)
peptide: Octanoyl-AFRL[NMeA][NMeL]DRI-NH2
modifications: not fully specified (some residues); printed as Occ-ala-Phe-arg-Leu-Nma-Nml-Asp-Arg-Ile-NH2

EC50 group, cGMP in GTM-3 cells: ≤ 5 µM
B11: JAL-1238 (peptide)
peptide: {Dodecenoyl(5Z)}-FRL[Hyp][NMeL]DRI-NH2
modifications: not fully specified (some residues); printed as 6015-Phe-arg-Leu-Hyp-Nml-Asp-Arg-Ile-NH2

EC50 group, cGMP in GTM-3 cells: ≤ 15 µM
B12: JAL-1226 (peptide)
peptide: Octanoyl-AFRL[Hyp][Tle]DRI-NH2
modifications: not fully specified (some residues); printed as Occ-ala-Phe-arg-Leu-Hyp-Tbg-Asp-Arg-Ile-NH2

EC50 group, cGMP in GTM-3 cells: ≤ 5 µM
B13: JAL-1241 (peptide)
peptide: 6057-FRL[Hyp][NMeL]DRI-NH2
modifications: not fully specified (some residues); printed as 6057-Phe-arg-Leu-Hyp-Nml-Asp-Arg-Ile-NH2

EC50 group, cGMP in GTM-3 cells: ≤ 15 µM
B14: JAL-0543 (peptide)
peptide: Hexanoyl-[3Amb]FGLKLDRIS[Ebe]-NH2
SMILES: CCCCCC(=O)NCc1cccc(C(=O)N[C@@H](Cc2ccccc2)C(=O)NCC(=O)N[C@@H](CC(C)C)C(=O)N[C@@H](CCCCN)C(=O)N[C@@H](CC(C)C)C(=O)N[C@@H](CC(=O)O)C(=O)N[C@@H](CCCNC(=N)N)C(=O)N[C@H](C(=O)N[C@@H](CO)C(=O)N[C@@H](CSC)C(N)=O)[C@@H](C)CC)c1

EC50 group, cGMP in GTM-3 cells: ≤ 15 µM
B15: JAL-1246 (peptide)
peptide: Lauroyl-FRL[Hyp]LDRI-NH2
modifications: not fully specified (some residues); printed as 832-Phe-arg-Leu-Hyp-Leu-Asp-Arg-Ile-NH2

EC50 group, cGMP in GTM-3 cells: ≤ 5 µM
B16: JAL-1228 (peptide)
peptide: Octanoyl-AFRLK[NMeL]DRI-NH2
modifications: not fully specified (some residues); printed as Occ-ala-Phe-arg-Leu-Lys-Nml-Asp-Arg-Ile-NH2

EC50 group, cGMP in GTM-3 cells: ≤ 5 µM
B17: JAL-1232 (peptide)
peptide: Octanoyl-AFR[Nva][Hyp][NMeL]DRI-NH2
modifications: not fully specified (some residues); printed as Occ-ala-Phe-arg-Nva-Hyp-Nml-Asp-Arg-Ile-NH2

EC50 group, cGMP in GTM-3 cells: ≤ 5 µM
Binder: [Oct][Sni][FrL][Hyp]LDRI-NH2 (reading uncertain; also: printed as Oct-Sni-FrL-Hyp-Leu-Asp-Arg-Ile-NH2) [JAL-1248]

EC50 group, cGMP in GTM-3 cells: ≤ 15 µM
B18: JAL-0542 (peptide)
peptide: Hexanoyl-[GABA]FGLKLDRIS[Ebe]-NH2
SMILES: CCCCCC(=O)NCCCC(=O)N[C@@H](Cc1ccccc1)C(=O)NCC(=O)N[C@@H](CC(C)C)C(=O)N[C@@H](CCCCN)C(=O)N[C@@H](CC(C)C)C(=O)N[C@@H](CC(=O)O)C(=O)N[C@@H](CCCNC(=N)N)C(=O)N[C@H](C(=O)N[C@@H](CO)C(=O)N[C@@H](CSC)C(N)=O)[C@@H](C)CC

EC50 group, cGMP in GTM-3 cells: ≤ 5 µM
B19: JAL-1233 (peptide)
peptide: Octanoyl-AFR[Ebe][Hyp][NMeL]DRI-NH2
modifications: not fully specified (some residues); printed as Occ-ala-Phe-arg-Ebe-Hyp-Nml-Asp-Arg-Ile-NH2

EC50 group, cGMP in GTM-3 cells: ≤ 1 µM
B20: JAL-1225 (peptide)
peptide: Octanoyl-AFRL[Hyp][tBuAla]DRI-NH2
modifications: not fully specified (some residues); printed as Occ-ala-Phe-arg-Leu-Hyp-Npg-Asp-Arg-Ile-NH2

EC50 group, cGMP in GTM-3 cells: ≤ 5 µM
B21: JAL-1245 (peptide)
peptide: Lauroyl-FLL[Hyp][NMeL]DRI-NH2
modifications: not fully specified (some residues); printed as 832-Phe-leu-Leu-Hyp-Nml-Asp-Arg-Ile-NH2
